Reference: PMC3727933 (Molecular Biology of the Cell, 2013)

Biological target: the molecule itself
Assay: SEC

B1: Nwk^1-428∆tips (domain or fragment, Drosophila, UniProt X2JAU8 1-428, looked up)
chain: MQPPPRKGNYVKFLKNLHTEQVAKLQLKNQHECDLLEDIRQFTIKRSAVEKSYSESLLKISSQYLNKKIPNIPDIKMEGMEERWNMWSVWRTVLEENEKLARARLAAIEVFQQQIADEAKVLRDYKLAIAKRSLAGIVNVQKELHLSVGDVDKTKKSYFDEEHCAHDVRDKARDIEEKLKNLITSLQKNSARVTSRKELLEEKSSGARNDYVLSLAAANAHQNRYFTVDLQTTMTTMENYVFERVAEYLMLMGRTELLTCSATQNSFGKIRDQAQQLTREYNLQCCYLFYPVLKQHIQYDFEACDNDPVRKVTAEHESAAETLTKEAKNLAGRVVKENASIRENAKKLALCQSLRDSGQRTDPNDPNGPDLDTKIEEFRDQIRRSETEKTKAEACLQCLRDGGINVDEWVQEAENMGVQEL
- stoichiometry N: 2
